Test results: the RNAGym collection of RNA variant scans (doi:10.1073/pnas.2313332121)

B1: TPR t1 (parent)
chain: GACCAAUCUGCCCUCAGAGCUCGAGAACAUCUUCGGAUGCAGAGGAGGCAGGCUUCGGUGGCGCGAUAGCGCCAACGUCCUCAACCUCCAAUGCAUCCCACCACAUGAUGAUGCCUGAAGAGCCUUGGUUUUUUG

Variants of: B1
Experiment: polymerase ribozyme fitness, log enrichment relative to wild type (log ratio); higher = more active; in vitro selection for triplet polymerase activity
Summary of the method: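 Mutant libraries of both subunits of a heterodimeric triplet polymerase ribozyme were PCR-built, transcribed, and selected once in triplicate, with frozen incubation at −7 °C and capture of gel-excised extended constructs on streptavidin beads before RT-PCR. Illumina sequencing of input and output libraries was filtered to genotypes with ≥10 input reads and ≥1 read per output. Fitness is the logarithm of genotype enrichment over wild-type enrichment, using inverse-variance-weighted replicate averages. The logarithm is base 2.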

Variant	polymerase ribozyme fitness (log ratio)
GACCAAUCUGCCCUCAGAGCUCGAGAACAUCUUCGGAUGCAGAGGAUGCAGGCUUCGGUGUCGCGAUAGCGCCAACGUCCUCAACCUCCAAUGCAUCCCACCACAUGAUGAUGCCUGAAGAGCCUUGGUUUUUUG [G47U G61U]	-2.36
GACCAAUCUGCCCUCAGAGCUCGAGAACAUCUUCGGAUGCAGAGGAUGCAGGCUUCGGUGGCGCGAUAGCACCAACGUCCUCAACCUCCAAUGCAUCCCACCACAUGAUGAUGCCUGAAGAGCCUUGGUUUUUUG [G47U G71A]	-1.21
GACCAAUCUGCCCUCAGAGCUCGAGAACAUCUUCGGAUGCAGAGGAUGCAGGCUUCGGUGGCGCGAUAGCGCCAACGUCCUCAACCUCCAAUGCAUCCCACCACAUGAUGAUGCCUGAACAGCCUUGGUUUUUUG [G47U G120C]	-0.748
GACCAAUCUGCCCUCAGAGCUCGAGAACAUCUUCGGAUGCAGAGGAUGCAGGCUUCGGUGGCGCGAUAGCGCCAACGUCCUCAACCUCCAAUGCAUCCCACCACAUGAUGAUGCCUGAACAGCCUUGGUUGUUUG [G47U G120C U131G]	0.253
GACCAAUCUGCCCUCAGAGCUCGAGAACAUCUUCGGAUGCAGAGGAUGCAGGCUUCGGUGGCGCGAUAGCGCCAACGUCCUCAACCUCCAAUGCAUCCCACCACAUGAUGAUGCCUGAAGAGCCUUGUUUUUUUG [G47U G128U]	-2.73
GACCAAUCUGCCCUCAGAGCUCGAGAACAUCUUCGGAUGCAGAGGAUGCAGGCUUCGGUGGCGCGAUAGCGCCAACGUCCUCAACCUCCAAUGCAUCCCACCACAUGAUGAUGCCUGAAGAGCCUUGGUUUUUUC [G47U G135C]	-1.39
GACCAAUCUGCCCUCAGAGCUCGAGAACAUCUUCGGAUGCAGAGGAUGCAGGCAUCGGUGGCGCGAUAGCGCCAACGUCCUCAACCUCCAAUGCAUCCCACCACAUGAUGAUGCCUGAAAAGCCUUGGUUUUUUG [G47U U54A G120A]	-0.309
GACCAAUCUGCCCUCAGAGCUCGAGAACAUCUUCGGAUGCAGAGGAUGCAGGCCUCGGUGGCGCGAUAGCGCCAACGUCCUCAACCUCCAAUGCAUCCCACCACAUGAUGAUGCCUGAAGAGCCUUGGUUUUUUG [G47U U54C]	-3.33
GACCAAUCUGCCCUCAGAGCUCGAGAACAUCUUCGGAUGCAGAGGAUGCAGGCCUCGGUGGCGCGAUAGUGCCAACGUCCUCAACCUCCAAUGCACCCCACCACAUGAUGAUGCCCGAAGAGCCUUGGCUUUUUG [G47U U54C C70U U96C U116C U129C]	-4.8
GACCAAUCUGCCCUCAGAGCUCGAGAACAUCUUCGGAUGCAGAGGAUGCAGGCUUCGGUGGCGCGAUAGCGCCAACGUCCUCAACCUCCAAUGCACCCCACCACAUGAUGAUGCCUGGAGAGCCUUGGUUUUUUG [G47U U96C A118G]	-1.69
GACCAAUCUGCCCUCAGAGCUCGAGAACAUCUUCGGAUGCAGAGGAUGCAGGCUUCGGUGGCGCGAUAGCGCCAACGUCCUCAACCUCCAAUGCAUCCCACCACAUGAUGAUGCCCGAAGAGCCUUGGUUUUUUG [G47U U116C]	-1.74
GACCAAUCUGCCCUCAGAGCUCGAGAACAUCUUCGGAUGCAGAGGAUGCAGGCUUCGGUGGCGCGAUAGCGCCAACGUCCUCAACCUCCAAUGCAUCCCACCACAUGAUGAUGCCUGAAGAGCCGUGGUUUUUUG [G47U U125G]	-2.32
GACCAAUCUGCCCUCAGAGCUCGAGAACAUCUUCGGAUGCAGAGGAGACGGGCUUCGGUGGCGCGAUAUCGCCAAAGCCCUCAACCUCCAAUGCAUCCCACCACAUGAUGAUGCCUGAAGAGCCUUGGUUUUUUG [G48A A50G G69U C76A U78C]	-2.05
GACCAAUCUGCCCUCAGAGCUCGAGAACAUCUUCGGAUGCAGAGGAGACUGGCUUCGGUGGCGCGAUAGCGCCAACGACCUCAACCUCCAAUGCAUCCCACCACAUGAUGAUGCCUGAGCAGCCUUGGUUUUUUG [G48A A50U U78A A119G G120C]	0.486
GACCAAUCUGCCCUCAGAGCUCGAGAACAUCUUCGGAUGCAGAGGAGACAGGCUUCGGUGGCGCGAUAGCGCCAGCGUCCUCAACCUCCAAUGCAUCCCACCACAUGAUGAUGCCUGAAAAGCCUUGGUUUUUUG [G48A A75G G120A]	0.0402
GACCAAUCUGCCCUCAGAGCUCGAGAACAUCUUCGGAUGCAGAGGAGACAGGCUUCGGUGGCGCGAUAGCGCCAACGUCCUCAACCUCCAAUGCAUCCCACCACCUGAUGAUGCCUGAAACUCCUUGGAUUUUUG [G48A A105C G120A A121C G122U U129A]	-3.55
GACCAAUCUGCCCUCAGAGCUCGAGAACAUCUUCGGAUGCAGAGGAGACAGGUUUCGGUGGCGCGAUAGCGCCAACGUCUUCAACCUCCAAUGCAUCCCACCACAUGAUGAUGCCUGAAGAGCUUUGGUUUUUUG [G48A C53U C80U C124U]	0.0289
GACCAAUCUGCCCUCAGAGCUCGAGAACAUCUUCGGAUGCAGAGGAGACAGGCUUGGGUGGCGCGAUAGCGCCAACGUCCUCAAGCUCCAAUGAAUCCCACCACGUGAUGAUGCCUGAAGAGCCUUGGUUUUUUG [G48A C56G C85G C94A A105G]	-6.42
GACCAAUCUGCCCUCAGAGCUCGAGAACAUCUUCGGAUGCAGAGGAGACAGGCUUUGGUGGCGCGAUAGAGCCAACGUCCUCAACCUCCAAUACAUCCCACCACAUGAUGAUGCCUGAAGAGCCUUGGUUUUUUG [G48A C56U C70A G93A]	-5.28
GACCAAUCUGCCCUCAGAGCUCGAGAACAUCUUCGGAUGCAGAGGAGACAGGCUUUGGUGGCGCGAUAGCGCCAACGUCCUUAACCUCCAAUGCAUCCCACCACAUGAUGAUGCCUGAAGAGCCUUGGUUUUUUG [G48A C56U C82U]	-0.312
GACCAAUCUGCCCUCAGAGCUCGAGAACAUCUUCGGAUGCAGAGGAGACAGGCUUUGGUGGCGCGAUAGCGCCAACGUCCUCAACAUCCAAUGAAUCCCACCACAUGAUGCUGCCUGAAGAGCCUUGGUUUUUUG [G48A C56U C86A C94A A111C]	-2.79

Variant	polymerase ribozyme fitness (log ratio)
GACCAAUCUGCCCUCAGAGCUCGAGAACAUCUUCGGAUGCAGAGGAGACAGGCUUUGGUGGCGCGAUAGCGCCAACGUCCUCAACCUCCAAUCGAUCCCACCACAUGAUGAUGCCUGAAGAGCCUUGGUUUUUUG [G48A C56U G93C C94G]	-5.23
GACCAAUCUGCCCUCAGAGCUCGAGAACAUCUUCGGAUGCAGAGGAGACAGGCUUCGGUGGAGCGAUAGCGCCAACGUCCUCAACCUCCAAUGCAUCCCACCACAUGAUGAUGCCUGAAGAGCCUUGGUUUUUUG [G48A C62A]	-2.76
GACCAAUCUGCCCUCAGAGCUCGAGAACAUCUUCGGAUGCAGAGGAGACAGGCUUCGGUGGCGUGAUAGCGCCAACGCCCUCAACCUCCAAUGCAUCCCACCACAUUAUGAUGCCUGAAGAGCCUUGGUUUUUUG [G48A C64U U78C G107U]	-6.15
GACCAAUCUGCCCUCAGAGCUCGAGAACAUCUUCGGAUGCAGAGGAGACAGGCUUCGGUGGCGCGAUAGCGACAACGUCCUCAACCUCCAAUGCAUCCCACCACAUGAUGAUGCCUGAAGAGCCUUGGUUUUUUG [G48A C72A]	-0.519
GACCAAUCUGCCCUCAGAGCUCGAGAACAUCUUCGGAUGCAGAGGAGACAGGCUUCGGUGGCGCGAUAGCGACAACGUCCUCAACCUCCAAUGCAUCCCACCACAUGAUGAUGCAUGAAGAGCCUUGGUUUUUUG [G48A C72A C115A]	-0.421
GACCAAUCUGCCCUCAGAGCUCGAGAACAUCUUCGGAUGCAGAGGAGACAGGCUUCGGUGGCGCGAUAGCGACAACGUCCUCAACCUCCAAUGCAUCCCACCACAUGAUGAUGCCCGAAGAGCCUUGGUUUUUUG [G48A C72A U116C]	-1.09
GACCAAUCUGCCCUCAGAGCUCGAGAACAUCUUCGGAUGCAGAGGAGACAGGCUUCGGUGGCGCGAUAGCGGCAACGUCCUCAACCUCCAAUGCAUCCCACCACAUGAUGAUGCCUGAAGAGCCUUGGUUUUUUG [G48A C72G]	-0.135
GACCAAUCUGCCCUCAGAGCUCGAGAACAUCUUCGGAUGCAGAGGAGACAGGCUUCGGUGGCGCGAUAGCGUCAACGUCCUCAACCUCCAAUGCAUCCCACCACAUGAUGAUGCCUGAAGAGCCUUGGUUUUUUG [G48A C72U]	-0.785
GACCAAUCUGCCCUCAGAGCUCGAGAACAUCUUCGGAUGCAGAGGAGACAGGCUUCGGUGGCGCGAUAGCGUCAACGUCCUCAACCUCCAAUGUAUCCCACCACAUGAUGAUGCCUGAAGAGCCUUAGUUUUUUG [G48A C72U C94U G127A]	-2.68
GACCAAUCUGCCCUCAGAGCUCGAGAACAUCUUCGGAUGCAGAGGAGACAGGCUUCGGUGGCGCGAUAGCGCAAACGUCCUCAACCUCCAAUGCAUCCCACCACAUGAUGAUGCCUGAAGAGCCUUGGUUUUUUG [G48A C73A]	-0.973
GACCAAUCUGCCCUCAGAGCUCGAGAACAUCUUCGGAUGCAGAGGAGACAGGCUUCGGUGGCGCGAUAGCGCAAACGUCCUCAACCUCCAAAGCAUCCCACCACAUGAUGAUGCUUGAAGAGCCUUGGUUUUUUG [G48A C73A U92A C115U]	-5.26
GACCAAUCUGCCCUCAGAGCUCGAGAACAUCUUCGGAUGCAGAGGAGACAGGCUUCGGUGGCGCGAUAGCGCUAACGUCCUGAACCUCCAAUGCAUCCCACCACAUGAUGAUGCCUGAAGAGCCUUGGUUUUUUG [G48A C73U C82G]	-0.747
GACCAAUCUGCCCUCAGAGCUCGAGAACAUCUUCGGAUGCAGAGGAGACAGGCUUCGGUGGCGCGAUAGCGCCAACGUACUCAACCUCCAAUGCAUCCCACCACAUGAUGAUGCCUGAAGAGCCUCGGUUUUUUG [G48A C79A U126C]	-2.73
GACCAAUCUGCCCUCAGAGCUCGAGAACAUCUUCGGAUGCAGAGGAGACAGGCUUCGGUGGCGCGAUAGCGCCAACGUCUUCAACCUCCAAUGCAACCCACCACAUGAUGAUGUCUGAAGAGCCUUGGUUUUUUG [G48A C80U U96A C114U]	-3.73
GACCAAUCUGCCCUCAGAGCUCGAGAACAUCUUCGGAUGCAGAGGAGACAGGCUUCGGUGGCGCGAUAGCGCCAACGUCCUAAACCUCCAAUGCAUCCCACCACAUGAUGAUGCCUGAAGAGCCUUGGUUUUUUG [G48A C82A]	-1.42
GACCAAUCUGCCCUCAGAGCUCGAGAACAUCUUCGGAUGCAGAGGAGACAGGCUUCGGUGGCGCGAUAGCGCCAACGUCCUGAACCUCCAAUGCAUCCCACCACAUGAUGAUGCCUGAAGAGCCUUGGUUUUUUG [G48A C82G]	-0.457
GACCAAUCUGCCCUCAGAGCUCGAGAACAUCUUCGGAUGCAGAGGAGACAGGCUUCGGUGGCGCGAUAGCGCCAACGUCCUUAACCUCCAAAGCAUCCCACCACAUGAUUAUGCCUGAAGAGCCUUGGUUUUUUG [G48A C82U U92A G110U]	-6.7
GACCAAUCUGCCCUCAGAGCUCGAGAACAUCUUCGGAUGCAGAGGAGACAGGCUUCGGUGGCGCGAUAGCGCCAACGUCCUCAAGCUCCAAUGCAUCCCACCACAUGAUGAUGCCUGAAGAGCCUUGGUUUUUUG [G48A C85G]	-2.75
GACCAAUCUGCCCUCAGAGCUCGAGAACAUCUUCGGAUGCAGAGGAGACAGGCUUCGGUGGCGCGAUAGCGCCAACGUCCUCAAGCUCAAAUGCACCCCACCACAUGAUGAUGCCUGAAGAGCCUUGGUUUUUUG [G48A C85G C89A U96C]	-2.26
GACCAAUCUGCCCUCAGAGCUCGAGAACAUCUUCGGAUGCAGAGGAGACAGGCUUCGGUGGCGCGAUAGCGCCAACGUCCUCAAGCUCCAAUGCAUCCCACCACACGAUGAUGCCUGAAGAGCCUUGGUUUUUUG [G48A C85G U106C]	-1.25
GACCAAUCUGCCCUCAGAGCUCGAGAACAUCUUCGGAUGCAGAGGAGACAGGCUUCGGUGGCGCGAUAGCGCCAACGUCCUCAAUCUCCAAUGCAUCCCACCACUUGAUGAUGCCUGAAGAGCCUUGGUUUUUUG [G48A C85U A105U]	-2.08
